Blank lines part the entries; values can stand above or below the binder they belong to.
Legend:
human glucagon receptor [1] = target: T1, human glucagon receptor (human, UniProt P47871 26-477); test: cell-based or functional assay
human glucagon receptor [2] = target: T1, human glucagon receptor; test: FACS on CHO-DHFR-hGCGR cells, antibody at 500, 50 and 5 nM; control is blank CHO-DHFR- cells
Description: PBS containing 10 mM EDTA was used to detach the CHO-DHFR-hGCGR cells and 10⁵ cells/tube was dispensed into 1.5 mL EP tubes, and the supernatant was removed after centrifugation, The negative control sample was resuspended with a loading buffer (PBS, 2% FBS). For the positive control, 200 μL hGCGR antibody solution of specific concentrations was added to the cells and incubated at room temperature; after incubation, the cells were then centrifuged at 1500 rpm to remove the supernatant, washed with a FACS loading buffer and centrifuged again. The cells were resuspended with addition (200 μL/well) of a FITC labeled goat anti-mouse fluorescent antibody at 1:50 dilution (BD Pharmingen) and incubated at room temperature for 30 min in the dark. The supernatant was removed after centrifugation, and cells were washed with FACS loading buffer, centrifuged again, and resuspended with the loading buffer for FACS analysis.

IC50, antagonism of glucagon-activated hGCGR signaling, direct cAMP assay on CHO-DHFR- cells expressing human GCGR (human glucagon receptor [1]): 0.139 µM
B1: hGCGR antibody L7H7 (antibody, V domains shown)
VH: QVQLVQSGAEVKKPGASVKVSCKASGYTFTEYTMHWVRQAPGQRLEWIGGINPDNGGPSYSQKFKGRVTITRDTSASTAYMELSSLRSEDTAVYYCAEETHDYDKFAYWGQGTLVTVSS
VL: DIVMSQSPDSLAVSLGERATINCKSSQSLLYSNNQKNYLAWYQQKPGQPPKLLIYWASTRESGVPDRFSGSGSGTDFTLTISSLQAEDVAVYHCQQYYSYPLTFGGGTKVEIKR

binding result (human glucagon receptor [2]): binds
B2: mouse ascites antibody L4H4 (antibody, V domains shown)
VH: DVQLQESGPGLVKPSQSLSLTCTVTGYSITSDYAWTWIRQFPGNKLEWMGYISFTGTTSYTPSLKSRISITRDTSKNQFFLYLNSVTAEDTATYYCVRSVIFTIDSWGQGTSVTVSS
VL: DIQMTQSPASLSASVGETVTITCRASGNIHNYLTWFQQRRGKSPQLLVYNAKALADGVPSRFSGSGSGTEYSLKINSLQPEDFGDYYCLHFWSSPLTFGAGTKLELKR
notes: Murine antibody produced from mouse ascites; also called GCGR antibody L4H4
